9 substances from PMC3326523, “Histone Recognition and Large-Scale Structural Analysis of the Human Bromodomain Family” (Cell, 2012) can be followed below.

The target in assay [1] is CECR2 bromodomain (human) (UniProt Q9BXF3). Kind of assay: ITC; peptide (mM stock) titrated into bromodomain (about 50 μM), by the concentrations in the tables; 10 or 15°C, 50 mM HEPES pH 7.5, 150 mM NaCl; single binding site model. In general terms: Isothermal titration calorimetry measures the heat released or taken up as one component is titrated into another.
CECR2 bromodomain (human), sequence (Q9BXF3 424-538): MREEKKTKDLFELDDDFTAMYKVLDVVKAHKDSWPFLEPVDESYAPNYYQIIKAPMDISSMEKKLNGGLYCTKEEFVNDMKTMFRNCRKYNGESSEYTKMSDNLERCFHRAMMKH
The target of assay [2] is TAF1(1/2), tandem bromodomains of TAF1 (human) (UniProt P21675). Described as above.
TAF1(1/2), tandem bromodomains of TAF1 (human), sequence (P21675 whole entry): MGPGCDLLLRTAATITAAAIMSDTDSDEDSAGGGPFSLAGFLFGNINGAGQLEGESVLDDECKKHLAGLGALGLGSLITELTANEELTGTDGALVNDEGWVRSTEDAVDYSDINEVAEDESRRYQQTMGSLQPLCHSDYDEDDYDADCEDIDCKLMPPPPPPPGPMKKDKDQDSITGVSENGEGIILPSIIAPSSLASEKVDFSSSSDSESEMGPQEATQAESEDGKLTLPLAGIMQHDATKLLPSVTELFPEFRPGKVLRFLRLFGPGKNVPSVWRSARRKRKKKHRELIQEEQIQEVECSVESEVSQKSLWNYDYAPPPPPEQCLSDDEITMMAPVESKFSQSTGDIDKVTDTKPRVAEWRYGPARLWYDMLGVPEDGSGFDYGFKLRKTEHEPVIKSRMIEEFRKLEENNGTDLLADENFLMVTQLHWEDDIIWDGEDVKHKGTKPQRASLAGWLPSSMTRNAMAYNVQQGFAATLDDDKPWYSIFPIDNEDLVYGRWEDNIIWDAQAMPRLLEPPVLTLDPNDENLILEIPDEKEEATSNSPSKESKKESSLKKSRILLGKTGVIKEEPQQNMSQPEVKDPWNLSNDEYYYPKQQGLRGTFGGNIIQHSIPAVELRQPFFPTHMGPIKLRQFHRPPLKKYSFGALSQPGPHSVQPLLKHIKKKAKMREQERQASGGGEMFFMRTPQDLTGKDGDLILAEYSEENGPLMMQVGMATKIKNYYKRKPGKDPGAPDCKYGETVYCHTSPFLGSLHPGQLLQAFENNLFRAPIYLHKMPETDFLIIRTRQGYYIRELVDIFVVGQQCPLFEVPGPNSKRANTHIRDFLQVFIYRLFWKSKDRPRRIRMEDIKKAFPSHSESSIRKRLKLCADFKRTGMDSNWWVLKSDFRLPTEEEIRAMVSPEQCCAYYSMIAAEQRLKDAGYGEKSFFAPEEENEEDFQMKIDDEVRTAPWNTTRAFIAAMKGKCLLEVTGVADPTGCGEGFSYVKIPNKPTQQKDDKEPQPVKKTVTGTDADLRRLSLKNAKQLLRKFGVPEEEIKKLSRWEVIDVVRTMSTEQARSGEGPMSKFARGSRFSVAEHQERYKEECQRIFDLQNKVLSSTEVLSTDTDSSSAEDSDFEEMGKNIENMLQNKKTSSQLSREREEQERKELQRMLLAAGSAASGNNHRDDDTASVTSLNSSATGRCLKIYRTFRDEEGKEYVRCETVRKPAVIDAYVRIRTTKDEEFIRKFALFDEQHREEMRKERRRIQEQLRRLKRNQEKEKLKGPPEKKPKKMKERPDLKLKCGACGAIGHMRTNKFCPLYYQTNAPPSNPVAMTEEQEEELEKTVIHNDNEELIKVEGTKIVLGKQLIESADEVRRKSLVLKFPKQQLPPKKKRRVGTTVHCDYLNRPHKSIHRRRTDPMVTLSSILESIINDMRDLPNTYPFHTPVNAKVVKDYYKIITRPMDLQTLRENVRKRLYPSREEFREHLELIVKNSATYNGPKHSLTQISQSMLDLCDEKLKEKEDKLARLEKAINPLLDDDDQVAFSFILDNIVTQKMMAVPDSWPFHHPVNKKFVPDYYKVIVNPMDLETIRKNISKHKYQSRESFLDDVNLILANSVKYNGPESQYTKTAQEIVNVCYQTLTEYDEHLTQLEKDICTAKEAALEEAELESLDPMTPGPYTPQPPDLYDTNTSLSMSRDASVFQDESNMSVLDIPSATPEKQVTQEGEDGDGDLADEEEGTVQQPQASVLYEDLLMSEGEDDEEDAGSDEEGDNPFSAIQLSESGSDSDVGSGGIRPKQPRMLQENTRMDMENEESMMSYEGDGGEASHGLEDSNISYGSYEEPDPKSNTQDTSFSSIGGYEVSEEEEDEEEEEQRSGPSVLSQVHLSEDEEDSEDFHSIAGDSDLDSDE
Assay [3] addresses BAZ2B bromodomain (human) (UniProt Q9UIF8). The assay is described as above.
The target in another assay is PCAF bromodomain (human) (UniProt Q92831). The assay is described as above.
Assay [4] deals with SMARCA2 bromodomain (human) (UniProt P51531). The assay is described as above.
The target in assay [5] is TAF1(2), second bromodomain of TAF1 (human) (UniProt P21675). The assay is described as above.
TAF1(2), second bromodomain of TAF1 (human), sequence (P21675 whole entry): as above
In assay [6] the target is CREBBP bromodomain (human) (UniProt Q92793). The description is as above.
CREBBP bromodomain (human), sequence (Q92793 1081-1197): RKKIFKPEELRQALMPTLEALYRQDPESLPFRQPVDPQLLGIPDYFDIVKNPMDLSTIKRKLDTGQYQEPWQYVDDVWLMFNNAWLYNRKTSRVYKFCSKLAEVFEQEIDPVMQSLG
In assay [7] the target is BRD3(1), first bromodomain of BRD3 (human) (UniProt Q15059). Described as above.
BRD3(1), first bromodomain of BRD3 (human), sequence (Q15059 whole entry): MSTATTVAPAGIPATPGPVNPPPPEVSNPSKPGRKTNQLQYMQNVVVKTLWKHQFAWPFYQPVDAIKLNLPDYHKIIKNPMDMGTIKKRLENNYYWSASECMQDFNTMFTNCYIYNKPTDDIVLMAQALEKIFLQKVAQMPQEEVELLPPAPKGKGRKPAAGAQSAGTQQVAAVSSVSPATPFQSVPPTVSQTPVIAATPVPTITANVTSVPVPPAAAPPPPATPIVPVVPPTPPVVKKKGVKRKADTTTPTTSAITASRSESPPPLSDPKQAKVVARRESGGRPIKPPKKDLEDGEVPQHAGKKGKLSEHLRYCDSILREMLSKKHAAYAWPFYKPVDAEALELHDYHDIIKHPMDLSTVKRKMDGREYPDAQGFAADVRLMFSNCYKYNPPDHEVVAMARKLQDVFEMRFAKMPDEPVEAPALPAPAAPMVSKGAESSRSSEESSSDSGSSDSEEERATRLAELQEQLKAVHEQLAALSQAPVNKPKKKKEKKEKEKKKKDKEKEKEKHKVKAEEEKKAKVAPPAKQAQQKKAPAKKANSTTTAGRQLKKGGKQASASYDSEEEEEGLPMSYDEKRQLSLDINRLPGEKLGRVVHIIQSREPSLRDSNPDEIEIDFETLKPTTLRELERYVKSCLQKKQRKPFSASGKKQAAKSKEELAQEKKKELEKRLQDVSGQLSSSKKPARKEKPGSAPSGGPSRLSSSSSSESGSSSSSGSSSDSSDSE
In assay [8] the target is KIAA1240 bromodomain (human) (UniProt Q9ULI0). The description is as above.
In assay [9] the target is BRD3(1), first bromodomain of BRD3 (human) (UniProt Q15059). Kind of assay: ITC; as a1; rows with N of about 0.5 or 0.25: two or more bromodomains on one peptide, apparent binding constants, events not deconvoluted.
The target of assay [10] is BRD3(2), second bromodomain of BRD3 (human) (UniProt Q15059). The assay is described as above.
Assay [11] addresses H3K14ac peptide (ITC) (human). Kind of assay: ITC; VP-ITC or ITC200, 10 or 15°C, 50 mM HEPES pH 7.5, 150 mM NaCl; in most cases single binding site model.
The target of assay [12] is H3pS10K14acK18ac peptide (ITC) (human). Described as above.
In another assay the target is EP300 bromodomain (UniProt Q09472). Kind of assay: SPOT peptide array, His6-BRD overlay. Particulars: reference: H3K4acK9ac peptide; sites T3.
Assay [13] addresses WDR9 second bromodomain, WDR9(2) (UniProt Q9NSI6). Nature of the assay: SPOT peptide array, His6-BRD overlay. Particulars: reference: H3K4acK9ac peptide; sites T3.

bromodomain of CREBBP, tag removed (ITC), sequence (Q92793 1081-1197): as the sequence (Q92793 1081-1197) above
BAZ2B bromodomain (human), sequence (Q9UIF8 whole entry): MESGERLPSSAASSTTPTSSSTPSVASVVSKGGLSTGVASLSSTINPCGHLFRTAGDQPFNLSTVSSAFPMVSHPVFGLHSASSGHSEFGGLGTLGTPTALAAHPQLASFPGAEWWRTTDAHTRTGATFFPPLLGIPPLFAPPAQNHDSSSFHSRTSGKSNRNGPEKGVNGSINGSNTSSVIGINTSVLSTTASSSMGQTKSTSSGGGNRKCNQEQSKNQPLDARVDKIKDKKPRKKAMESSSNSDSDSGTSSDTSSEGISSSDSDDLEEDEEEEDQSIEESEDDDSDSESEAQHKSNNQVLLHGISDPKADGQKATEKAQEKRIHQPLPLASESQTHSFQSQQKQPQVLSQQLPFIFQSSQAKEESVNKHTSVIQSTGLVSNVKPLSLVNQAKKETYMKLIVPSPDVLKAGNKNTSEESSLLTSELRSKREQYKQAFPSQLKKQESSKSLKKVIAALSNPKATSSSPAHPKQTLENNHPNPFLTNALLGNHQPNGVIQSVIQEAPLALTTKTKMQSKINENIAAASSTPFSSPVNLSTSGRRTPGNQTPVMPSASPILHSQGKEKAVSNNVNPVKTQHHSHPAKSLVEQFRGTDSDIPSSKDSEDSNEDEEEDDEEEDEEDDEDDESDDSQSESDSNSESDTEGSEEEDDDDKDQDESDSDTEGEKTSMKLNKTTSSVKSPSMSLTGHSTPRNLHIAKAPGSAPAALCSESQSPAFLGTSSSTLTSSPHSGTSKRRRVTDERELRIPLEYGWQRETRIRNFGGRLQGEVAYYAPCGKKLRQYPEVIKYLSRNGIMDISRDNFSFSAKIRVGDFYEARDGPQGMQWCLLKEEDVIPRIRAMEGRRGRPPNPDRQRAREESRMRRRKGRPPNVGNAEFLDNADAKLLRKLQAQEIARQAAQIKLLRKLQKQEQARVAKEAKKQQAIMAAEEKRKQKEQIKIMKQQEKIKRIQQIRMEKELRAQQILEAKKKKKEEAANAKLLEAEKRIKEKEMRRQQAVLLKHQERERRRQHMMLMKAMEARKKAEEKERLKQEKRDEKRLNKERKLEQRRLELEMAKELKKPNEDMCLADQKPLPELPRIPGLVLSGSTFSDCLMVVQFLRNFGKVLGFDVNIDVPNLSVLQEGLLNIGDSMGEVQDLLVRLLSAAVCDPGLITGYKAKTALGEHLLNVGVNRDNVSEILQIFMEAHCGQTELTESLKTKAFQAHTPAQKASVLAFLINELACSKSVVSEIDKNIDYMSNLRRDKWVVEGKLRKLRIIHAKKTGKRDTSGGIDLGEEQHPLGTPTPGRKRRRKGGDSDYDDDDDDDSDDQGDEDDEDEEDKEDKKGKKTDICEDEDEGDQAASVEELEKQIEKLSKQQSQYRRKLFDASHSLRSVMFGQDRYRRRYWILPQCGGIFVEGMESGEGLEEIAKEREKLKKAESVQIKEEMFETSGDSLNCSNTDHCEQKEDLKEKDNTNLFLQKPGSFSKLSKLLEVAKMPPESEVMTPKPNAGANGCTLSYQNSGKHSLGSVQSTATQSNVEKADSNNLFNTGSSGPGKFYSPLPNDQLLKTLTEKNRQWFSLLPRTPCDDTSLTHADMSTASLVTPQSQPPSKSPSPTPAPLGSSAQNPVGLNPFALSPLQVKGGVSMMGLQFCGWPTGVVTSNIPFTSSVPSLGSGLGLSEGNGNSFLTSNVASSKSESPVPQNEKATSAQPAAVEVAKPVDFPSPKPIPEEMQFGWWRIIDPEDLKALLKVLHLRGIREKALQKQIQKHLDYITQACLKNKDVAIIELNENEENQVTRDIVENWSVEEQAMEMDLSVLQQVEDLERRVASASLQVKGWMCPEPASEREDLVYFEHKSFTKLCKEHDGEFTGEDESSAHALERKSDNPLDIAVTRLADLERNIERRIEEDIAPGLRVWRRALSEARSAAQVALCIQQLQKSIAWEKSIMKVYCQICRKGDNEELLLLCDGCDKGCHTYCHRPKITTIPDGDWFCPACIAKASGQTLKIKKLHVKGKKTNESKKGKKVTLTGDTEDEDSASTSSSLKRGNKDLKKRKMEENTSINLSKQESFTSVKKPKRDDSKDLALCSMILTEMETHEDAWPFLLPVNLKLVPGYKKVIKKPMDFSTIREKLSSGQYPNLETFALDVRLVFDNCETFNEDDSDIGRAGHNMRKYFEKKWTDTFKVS

With H3K9 peptide KQTARKacSTGGKY, the stoichiometry N in assay [1] was found to be 1.
Take H3K9/K14 peptide KQTARKacSTGGKacAPRKQY: in [2], the Kd amounted to 339 µM and the stoichiometry N stood at 1.02.
In [2], “H3K9/S10/K14 peptide KQTARKacpSTGGKacAPRKQY” displayed a Kd of 150 µM and a stoichiometry N of 1.05.
As for H3K14 peptide KSTGGKacAPRKQY, the Kd in assay [3] was 7.6 µM; in assay [2] it was 179 µM; in assay [5], 306 µM. Further, the stoichiometry N was determined as 1 in assay [3]; 1 in assay [1]; 1.01 with PCAF bromodomain (human); 1.05 in assay [4]; 1.01 in [2].
On to H3S10K14K18 peptide KpSTGGKacAPRKacQY, for which the stoichiometry N in assay [6] was 1.
As to H4K8 peptide RGKGGKacGLGKGY, in assay [7], the Kd is 211 µM and the stoichiometry N is 1. In assay [8], this substance had a stoichiometry N of 1.
For H4K12/16/20 peptide GKacGGAKacRHRKacV, the Kd in assay [9] is 31.4 µM. Moreover, the stoichiometry N in assay [9] worked out at 0.51; in assay [10], 0.5.
For the substance “bromodomain of CREBBP, tag removed (ITC) (from UniProt Q92793 1081-1197) (domain or fragment)”, the Kd in assay [11] is 733 µM; in assay [12], 131 µM.
Consider “histone H3 N-terminal tail (from UniProt P68431) H3 pT3K4acK9ac peptide”, for which the “binding against the reference” value (with EP300 bromodomain; in assay [13]) was “gained” each time.

What is called stoichiometry N is a count of units in the complex or per binding partner.
